Assay results published in patent EP3689907A1 (Numab Therapeutics AG, dated 2020).

T1: cynomolgus monkey IL-17A (cynomolgus monkey (Macaca fascicularis))
T1 chain: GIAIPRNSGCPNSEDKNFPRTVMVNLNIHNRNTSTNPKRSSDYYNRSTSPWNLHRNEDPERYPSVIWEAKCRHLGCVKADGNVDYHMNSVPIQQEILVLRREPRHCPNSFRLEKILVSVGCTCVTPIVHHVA

T2: human IL-17B (human, UniProt Q9UHF5 21-180)
T2 sequence: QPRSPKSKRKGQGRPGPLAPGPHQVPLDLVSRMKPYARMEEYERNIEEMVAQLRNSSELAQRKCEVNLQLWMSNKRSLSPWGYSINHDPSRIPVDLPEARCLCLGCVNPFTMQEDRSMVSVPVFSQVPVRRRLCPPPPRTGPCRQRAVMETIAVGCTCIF

T3: human IL-17C (human, UniProt Q9P0M4 19-197)
T3 sequence: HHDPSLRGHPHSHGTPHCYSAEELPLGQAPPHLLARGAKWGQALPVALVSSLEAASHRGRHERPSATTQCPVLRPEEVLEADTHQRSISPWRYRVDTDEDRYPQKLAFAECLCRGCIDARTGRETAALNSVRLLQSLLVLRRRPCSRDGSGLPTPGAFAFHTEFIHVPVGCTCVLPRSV

T4: human IL-17D (human, UniProt Q8TAD2 16-202, limits assumed)
T4 sequence: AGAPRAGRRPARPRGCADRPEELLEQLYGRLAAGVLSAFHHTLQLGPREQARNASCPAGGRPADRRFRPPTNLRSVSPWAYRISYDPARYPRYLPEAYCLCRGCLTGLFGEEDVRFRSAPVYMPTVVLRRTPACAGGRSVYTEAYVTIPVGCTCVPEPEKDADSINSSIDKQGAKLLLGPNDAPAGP

T5: human IL-17E (human, UniProt Q9H293 33-177)
T5 construct: also called IL-25
T5 sequence: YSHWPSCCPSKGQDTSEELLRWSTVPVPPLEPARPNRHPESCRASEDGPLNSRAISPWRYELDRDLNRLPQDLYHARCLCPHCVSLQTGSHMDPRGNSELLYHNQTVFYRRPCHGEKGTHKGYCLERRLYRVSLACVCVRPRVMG

T6: human IL-17F (human, UniProt Q96PD4 31-163)
T6 construct: Peprotech Cat. No. 200-25 in the direct ELISA
T6 sequence: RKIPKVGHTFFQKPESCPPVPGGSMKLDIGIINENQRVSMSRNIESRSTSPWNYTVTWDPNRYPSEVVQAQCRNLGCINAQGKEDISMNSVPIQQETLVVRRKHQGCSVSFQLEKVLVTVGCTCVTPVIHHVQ


Experiments:
cynomolgus monkey IL-17A = biological target: T1, cynomolgus monkey IL-17A; assay: SPR (Biacore T200), cynomolgus IL-17A (Trenzyme), scFv as analyte
human IL-17B = biological target: T2, human IL-17B; assay: competition ELISA: coated scFv, biotinylated IL-17A, unlabeled cytokine as competitor
human IL-17C = biological target: T3, human IL-17C; assay: as above
human IL-17D = biological target: T4, human IL-17D; assay: as above
human IL-17E = biological target: T5, human IL-17E; assay: as above
human IL-17F = biological target: T6, human IL-17F; assay: as above

Kd (cynomolgus monkey IL-17A) [nM]	koff (cynomolgus monkey IL-17A) [s⁻¹]	kon (cynomolgus monkey IL-17A) [M⁻¹ s⁻¹]	binding result (human IL-17B)	binding result (human IL-17C)	binding result (human IL-17D)	binding result (human IL-17E)	binding result (human IL-17F)	Binder
0.0331	3.88e-05	1.17e+06	no binding	no binding	no binding	no binding	no binding	PRO571 (scFv, also called 27-31-C04-sc01; 27_31_C04_sc01) scFv: DIQMTQSPSSLSASVGDRVTITCQASESIYRYLSWYQQKPGKAPKLLIYLASTLTSGVPSRFSGSGSGTDFTLTISSLQPEDFATYYCQSNFGTASTTYYNTFGGGTKLTVLGGGGGSGGGGSGGGGSGGGGSEVQLVESGGGLVQPGGSLRLSCAASGFSFSGFYYMCWVRQAPGKGLEWIGCIDTGDGTTYYASWAKGRFTISRDNSKNTVYLQMNSLRAEDTAVYYCARDAAYGGYAYPAHGMDLWGQGTLVTVSS
0.16	5.38e-05	336000	no binding	no binding	no binding	no binding	no binding	PRO592 (scFv, also called 27-31-C04-sc02; 27_31_C04_sc02) scFv: DIQMTQSPSSLSASVGDRVTITCQASESIYRYLSWYQQKPGKAPKLLIYLASTLTSGVPSRFSGSGSGTDFTLTISSLQPEDFATYYCQSNFGTASTTYYNTFGGGTKLTVLGGGGGSGGGGSGGGGSGGGGSEVQLVESGGGLVQPGGSLTLSCAASGFSFSGFYYMCWVRQAPGKGLEWIGCIDTGDGTTYYASWAKGRFTISRDNSKNTVYLQMNSLRAEDTAVYYCARDAAYGGYAYPAHGMDLWGPGTLVTVSS
